# Reference: patent US20170313754A1 (PROTAGONIST THERAPEUTICS, published 2017)
# Numbered stars: 1 amine (or outer) side, 2 acyl side, 3 side chain; on linkers, the order of the positions; unused ones are H or OH. Bridge positions count the residues as written; N and C are the ends. Square brackets hold non-standard residues; d marks the D form. Ends that are not written are not given here. * marks the point of attachment. Ida = iminodiacetic acid, O=C(CN(CC(=O)[*:3])[*:1])[*:2]; Dip = N[C@H](C(=O)O)C(c1ccccc1)c1ccccc1; β3hF = N[C@H](CC(=O)O)Cc1ccccc1; pGlu = O=C1CC[C@@H](C(=O)O)N1; β3hP = O=C(O)C[C@@H]1CCCN1; Isovaleryl = CC(C)CC(=O)*
# T1: human ferroportin (SLC40A1) fused in frame with GFP, stably expressed in HEK293 cells (human, UniProt Q9NP59 1-571)
# T1 sequence (looked up): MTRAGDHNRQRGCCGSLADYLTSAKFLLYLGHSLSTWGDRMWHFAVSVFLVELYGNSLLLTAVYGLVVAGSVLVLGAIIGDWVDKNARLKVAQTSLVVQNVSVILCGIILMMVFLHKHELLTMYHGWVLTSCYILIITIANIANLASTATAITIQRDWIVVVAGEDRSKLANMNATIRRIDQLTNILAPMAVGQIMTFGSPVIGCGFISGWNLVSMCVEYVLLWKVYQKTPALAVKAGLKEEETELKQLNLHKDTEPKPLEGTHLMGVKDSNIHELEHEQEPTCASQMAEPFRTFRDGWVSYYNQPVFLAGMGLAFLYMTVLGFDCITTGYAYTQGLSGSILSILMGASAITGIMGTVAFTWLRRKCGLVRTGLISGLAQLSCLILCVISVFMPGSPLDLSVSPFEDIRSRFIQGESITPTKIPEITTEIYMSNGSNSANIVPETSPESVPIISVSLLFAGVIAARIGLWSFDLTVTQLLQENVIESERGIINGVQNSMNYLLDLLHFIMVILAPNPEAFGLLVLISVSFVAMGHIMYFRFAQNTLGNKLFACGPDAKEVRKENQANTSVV
# Target: T1, human ferroportin (SLC40A1) fused in …
# Assay: cell-based or functional assay
"Potency EC50 (nM), ferroportin-GFP internalization/degradation","Potency: percent at the stated concentration, ferroportin-GFP internalization/degradation",Binder
,75 % at 1 µM,H-DTHFPCIVF-NH2 [Hy-DTHFPCIVF-NH2]
,81 % at 10 uM,H-DTHFPCVIF-NH2 [Hy-DTHFPCVIF-NH2]
> 1000 nM,,Isovaleryl-DTHFPCIKKEPHSKECK-NH2 (disulfide 6-16 (inferred)) [Isovaleric acid-DTHFPCIKKEPHSKECK-NH2]
> 1000 nM,,H-DTHFPCQIF-NH2 [Hy-DTHFPCQIF-NH2]
> 1000 nM,,[pGlu]THFPCRKF-NH2 (SMILES C[C@@H](O)[C@H](NC(=O)[C@@H]1CCC(=O)N1)C(=O)N[C@@H](Cc1c[nH]cn1)C(=O)N[C@@H](Cc1ccccc1)C(=O)N1CCC[C@H]1C(=O)N[C@@H](CS)C(=O)N[C@@H](CCCNC(=N)N)C(=O)N[C@@H](CCCCN)C(=O)N[C@@H](Cc1ccccc1)C(N)=O) [Hy-[pGlu]-THFPCRKF-NH2]
,31 % at 10 uM,"H-DTHFPCRIF-NH2 [Hy-DTHFPCRIF-NH2, listing 1 of 2 here]"
16 nM,,Isovaleryl-DTHFPCIIF-NH2 (SMILES CC[C@H](C)[C@H](NC(=O)[C@H](CS)NC(=O)[C@@H]1CCCN1C(=O)[C@H](Cc1ccccc1)NC(=O)[C@H](Cc1c[nH]cn1)NC(=O)[C@@H](NC(=O)[C@H](CC(=O)O)NC(=O)CC(C)C)[C@@H](C)O)C(=O)N[C@H](C(=O)N[C@@H](Cc1ccccc1)C(N)=O)[C@@H](C)CC) [Isovaleric acid-DTHFPCIIF-NH2]
> 1000 nM,,"H-DTHFPCRIF-NH2 [Hy-DTHFPCRIF-NH2, listing 2 of 2 here]"
206 nM,,[Ida]TH[Dip][β3hP]CRR[β3hF]-NH2 [[IDA]-TH-[Dpa]-[bhPro]CRR-[bhPhe]-NH2]
,77 % at 1 µM,H-ETHFPCIIF-NH2 [Hy-ETHFPCIIF-NH2]
7 nM,,Isovaleryl-DTHFPCIKF-NH2 (SMILES CC[C@H](C)[C@H](NC(=O)[C@H](CS)NC(=O)[C@@H]1CCCN1C(=O)[C@H](Cc1ccccc1)NC(=O)[C@H](Cc1c[nH]cn1)NC(=O)[C@@H](NC(=O)[C@H](CC(=O)O)NC(=O)CC(C)C)[C@@H](C)O)C(=O)N[C@@H](CCCCN)C(=O)N[C@@H](Cc1ccccc1)C(N)=O) [Isovaleric acid-DTHFPCIKF-NH2]
> 1000 nM,,[Ida]THF[β3hP]CIIF-NH2 [[Ida]-THF-[bhPro]-CIIF-NH2]
> 10000 nM,,H-DTHFPCLIF-NH2 [Hy-DTHFPCLIF-NH2]
6 nM,,DTHFPCIKFKPHSKECK (N-terminal isovaleric acid; K(isoglu-Palm) at Lys 10; C-terminal amide) [Isovaleric acid-DTHFPCIKF-K(isoglu-Palm)-PHSKECK-NH2]
,64 % at 1 µM,H-LTHFPCIIF-NH2 [Hy-LTHFPCIIF-NH2]
,60 % at 1 µM,H-DTKFPCIIF-NH2 [Hy-DTKFPCIIF-NH2]

# Continued, binder first:
Binder,"Potency EC50 (nM), ferroportin-GFP internalization/degradation","Potency: percent at the stated concentration, ferroportin-GFP internalization/degradation"
H-DTHFPCEIF-NH2 [Hy-DTHFPCEIF-NH2],> 1000 nM,
"H-DTHFPCIEF-NH2 [Hy-DTHFPCIEF-NH2, listing 1 of 2 here]",> 1000 nM,
H-DTHCPIAIF-NH2 [Hy-DTHCPIAIF-NH2],> 10000 nM,
"H-DTHFPCAIF-NH2 [Hy-DTHFPCAIF-NH2, listing 1 of 2 here]",> 1000 nM,
H-DTHFPCIIR-NH2 [Hy-DTHFPCIIR-NH2],,62 % at 1 µM
H-DTHF[dA]CIIF-NH2 (SMILES CC[C@H](C)[C@H](NC(=O)[C@H](CS)NC(=O)[C@@H](C)NC(=O)[C@H](Cc1ccccc1)NC(=O)[C@H](Cc1c[nH]cn1)NC(=O)[C@@H](NC(=O)[C@@H](N)CC(=O)O)[C@@H](C)O)C(=O)N[C@H](C(=O)N[C@@H](Cc1ccccc1)C(N)=O)[C@@H](C)CC) [Hy-DTHF-(D)-Ala-CIIF-NH2],> 10000 nM,
H-ATHFPCIIF-NH2 [Hy-ATHFPCIIF-NH2],> 1000 nM,
H-DTAFPCIIF-NH2 [Hy-DTAFPCIIF-NH2],739 nM,
H-DTHFPCIIK-NH2 [Hy-DTHFPCIIK-NH2],,55 % at 1 µM
H-DTHFPCIF-NH2 [Hy-DTHFPCIF-NH2],,52 % at 1 µM
H-DTHFACIIF-NH2 [Hy-DTHFACIIF-NH2],> 1000 nM,
H-DTHAPCIIF-NH2 [Hy-DTHAPCIIF-NH2],> 10000 nM,
"H-DTHFPCAIF-NH2 [Hy-DTHFPCAIF-NH2, listing 2 of 2 here]",> 1000 nM,
H-DTHFPCIEK-NH2 [Hy-DTHFPCIEK-NH2],,0 % at 1 µM
H-DTHFPCFIF-NH2 [Hy-DTHFPCFIF-NH2],1190 nM,
H-DTHFPCILK-NH2 [Hy-DTHFPCILK-NH2],,55 % at 1 µM
H-DTHFPCILF-NH2 [Hy-DTHFPCILF-NH2],,89 % at 1 µM
"H-DTHFPCIEF-NH2 [Hy-DTHFPCIEF-NH2, listing 2 of 2 here]",> 1000 nM,
H-DTHFPCIIA-NH2 [Hy-DTHFPCIIA-NH2],> 1000 nM,
H-DTHFPCIKFF-NH2 [Hy-DTHFPCIKFF-NH2],,64 % at 1 µM
